Data on four variants can be found in IntAct's records for PubMed 19762560.

To fix the notation:
B1: Synphilin-1 (Homo sapiens), Q9Y6H5 (parent)
chain: MEAPEYLDLDEIDFSDDISYSVTSLKTIPELCRRCDTQNEDRSVSSSSWNCGISTLITNTQKPTGIADVYSKFRPVKRVSPLKHQPETLENNESDDQKNQKVVEYQKGGESDLGPQPQELGPGDGVGGPPGKSSEPSTSLGELEHYDLDMDEILDVPYIKSSQQLASFTKVTSEKRILGLCTTINGLSGKACSTGSSESSSSNMAPFCVLSPVKSPHLRKASAVIHDQHKLSTEETEISPPLVKCGSAYEPENQSKDFLNKTFSDPHGRKVEKTTPDCQLRAFHLQSSAAESKPEEQVSGLNRTSSQGPEERSEYLKKVKSILNIVKEGQISLLPHLAADNLDKIHDENGNNLLHIAASQGHAECLQHLTSLMGEDCLNERNTEKLTPAGLAIKNGQLECVRWMVSETEAIAELSCSKDFPSLIHYAGCYGQEKILLWLLQFMQEQGISLDEVDQDGNSAVHVASQHGYLGCIQTLVEYGANVTMQNHAGEKPSQSAERQGHTLCSRYLVVVETCMSLASQVVKLTKQLKEQTVERVTLQNQLQQFLEAQKSEGKSLPSSPSSPSSPASRKSQWKSPDADDDSVAKSKPGVQEGIQVLGSLSASSRARPKAKDEDSDKILRQLLGKEISENVCTQEKLSLEFQDAQASSRNSKKIPLEKRELKLARLRQLMQRSLSESDTDSNNSEDPKTTPVRKADRPRPQPIVESVESMDSAESLHLMIKKHTLASGGRRFPFSIKASKSLDGHSPSPTSESSEPDLESQYPGSGSIPPNQPSGDPQQPSPDSTAAQKVATSPKSALKSPSSKRRTSQNLKLRVTFEEPVVQMEQPSLELNGEKDKDKGRTLQRTSTSNESGDQLKRPFGAFRSIMETLSGNQNNNNNYQAANQLKTSTLPLTSLGRKTDAKGNPASSASKGKNKAA

The test covers variants of B1. Conditions: with syua_human SNCA.
For V523N, the “effect of a mutation on the interaction” value is listed as “decreasing interaction”.

For the variant A519N, the “effect of a mutation on the interaction” value was “decreasing interaction”.

In the case of K527A, the “effect of a mutation on the interaction” value was “decreasing interaction”.

For the variant K524A, the “effect of a mutation on the interaction” value is “decreasing interaction”.
